Results published in the RNAGym collection of RNA variant scans (doi:10.7554/elife.90254).

B1: OR4K15 (parent)
chain: GUUAACGGUCAUAGGCCAUGGAAACUAGGAGCACCAUUUCGCUGCCAGUGAAGAAAUGAACAAAGAAAAUCUGGGCCAGGCAGGCAUCAAAAGAAAUAGUCUUGCGCUCAACCAGAAAGUCUGUAAUCAUUUUAAGGGUA

Variants of: B1
Assay: self-cleavage, relative activity (ratio to wild type); higher = more cleavage; in vitro, sequencing; the parent is a self-cleaving ribozyme
U12G A60G gave a self-cleavage of 1.59. Variant A13U A55G has a self-cleavage of 0.85. For U12C A96G, the self-cleavage was 1.02. A13U A62U showed a self-cleavage of 1.05. In the case of A13U A90U, the self-cleavage is reported as 1.8. Variant U12C A52G has a self-cleavage of 0.83. U12C U102C showed a self-cleavage of 1.22. U12G A82U gave a self-cleavage of 0.3. In the case of U12G U102C, the self-cleavage is reported as 1.11. For U12C A117G, the self-cleavage was 1.33. For A13G U39C, the self-cleavage was 0.92. A13G U39G gave a self-cleavage of 1.52. A13G U131C showed a self-cleavage of 1.01. A13G A92G showed a self-cleavage of 1.22. A13G G15U showed a self-cleavage of 1.33. In the case of U12C A89U, the self-cleavage is reported as 1.82. For U12C A89G, the self-cleavage was 1.35. Variant U12C A82U has a self-cleavage of 0.24. For U12C U72C, the self-cleavage was 0.18. U12C G28A showed a self-cleavage of 1.29. Work on A13G A89G yielded a self-cleavage of 1.31. Work on A13G A89C yielded a self-cleavage of 0. U12C A125G gave a self-cleavage of 0.5. Variant A13G C105A has a self-cleavage of 0.15. For U12C A54G, the self-cleavage was 1.22. In the case of U12C A54U, the self-cleavage is reported as 1.51. In the case of U12C A90U, the self-cleavage is reported as 0.94. For A13G U124C, the self-cleavage was 0.57. Variant A13G U100C has a self-cleavage of 1.34. A13G A47G showed a self-cleavage of 0.13. In the case of A13U A91U, the self-cleavage is reported as 1.34. For A13G G137U, the self-cleavage was 1.06. In the case of U12A U122C, the self-cleavage is reported as 1.26. For U12G, the self-cleavage was 1.33. U12C gave a self-cleavage of 1.01. In the case of A13U A96G, the self-cleavage is reported as 1.14. With U12C A51U the self-cleavage was 1.38. U12C G99A gave a self-cleavage of 0.97. A13G A78U showed a self-cleavage of 0.6. For U12C U87A, the self-cleavage was 0.96. Work on A13G A118U yielded a self-cleavage of 0.59. A13G A118G showed a self-cleavage of 0.96. In the case of U12C U97C, the self-cleavage is reported as 0.65. U12C A114U showed a self-cleavage of 0.14. With U12C A114G the self-cleavage was 0.19. Variant A13G A60G has a self-cleavage of 1.33. A13G A82G gave a self-cleavage of 0.47. With U12C A94G the self-cleavage was 1.34. Variant A13G A114G has a self-cleavage of 0.31. U12C A60G showed a self-cleavage of 1.34. For U12C A22U, the self-cleavage was 0.66. Variant A13C G79U has a self-cleavage of 0.17. Variant A13C A116G has a self-cleavage of 0.96. A13U A52U showed a self-cleavage of 1.26. Variant A13U A52G has a self-cleavage of 1.18. A13U A36G gave a self-cleavage of 0.89. In the case of A13G A54G, the self-cleavage is reported as 0.81. Work on A13G A54U yielded a self-cleavage of 0.74. A13U A56G showed a self-cleavage of 1.44. Work on U12C U37G yielded a self-cleavage of 1.92. Variant U12C A69G has a self-cleavage of 1.68. Variant A13G C32U has a self-cleavage of 1.2. U12A U102A gave a self-cleavage of 1.08. Work on U12C A18C yielded a self-cleavage of 0.58. Variant A13U A60G has a self-cleavage of 0.32. In the case of A13G A135G, the self-cleavage is reported as 0.79. In the case of A13U A68C, the self-cleavage is reported as 1.86. Variant U12G U100C has a self-cleavage of 1.76. With A13U A94G the self-cleavage was 0.55. In the case of U12G A33G, the self-cleavage is reported as 1.04. With A13U A63U the self-cleavage was 1.13. With A13U A63G the self-cleavage was 1.3. A13U A47G showed a self-cleavage of 0.93. For U12C A13U, the self-cleavage was 0.95. Work on U12C A13G yielded a self-cleavage of 1.16. With A13G G53A the self-cleavage was 1.11. With A13G U87C the self-cleavage was 1.5. With A13G A68G the self-cleavage was 0.65. U12C G84C showed a self-cleavage of 0.31. Work on A13G A36G yielded a self-cleavage of 0.49. In the case of U12C C45U, the self-cleavage is reported as 1.85. A13G G41A showed a self-cleavage of 0.97. A13G G41U showed a self-cleavage of 1.28. Work on A13G G41C yielded a self-cleavage of 1.02. U12C U130C gave a self-cleavage of 0.95. Work on A13G C71U yielded a self-cleavage of 0.46. Variant U12C A36G has a self-cleavage of 1.44. In the case of A13G A116U, the self-cleavage is reported as 0.41. For U12C A47G, the self-cleavage was 1.3. U12C A78U showed a self-cleavage of 0.34. U12C U70C gave a self-cleavage of 1.25. Variant A13G C40U has a self-cleavage of 1.03. Variant A13U A89G has a self-cleavage of 1.51. Variant A13G G136A has a self-cleavage of 0.95. Variant U12C U49C has a self-cleavage of 0.44. In the case of U12C U49G, the self-cleavage is reported as 0.74. For A13U A18U, the self-cleavage was 0.56. With A13G U57C the self-cleavage was 1.18. In the case of A13G U57A, the self-cleavage is reported as 1.24. A13G U132C gave a self-cleavage of 0.41. Work on U12C U122C yielded a self-cleavage of 1.05. A13G U133C gave a self-cleavage of 1.84. For U12C A23G, the self-cleavage was 0.76. In the case of A13G A94G, the self-cleavage is reported as 0.6. For A13G A94U, the self-cleavage was 1.4. Work on A13U A98U yielded a self-cleavage of 2.18. Work on A13G U97C yielded a self-cleavage of 0.78. For A13G C17U, the self-cleavage was 1.46. For A13G G80C, the self-cleavage was 0.19. With A13G G80A the self-cleavage was 0.43. For U12C C105U, the self-cleavage was 0.23. With A13G A62G the self-cleavage was 1.25. Work on A13G A23U yielded a self-cleavage of 1.32. Work on A13G U108G yielded a self-cleavage of 0. A13G U108C showed a self-cleavage of 0.05. For A13G U108A, the self-cleavage was 0.12. With U12C A118U the self-cleavage was 0.22. Work on U12C U38A yielded a self-cleavage of 0.89. Work on U12G A22G yielded a self-cleavage of 1.13. In the case of A13U A114U, the self-cleavage is reported as 0.07. Work on A13U A114G yielded a self-cleavage of 0.09. U12C U103C showed a self-cleavage of 1.41. A13U A64G showed a self-cleavage of 1.04. U12C U139C gave a self-cleavage of 1.41. Work on U12C A62G yielded a self-cleavage of 1.18. A13U A82G showed a self-cleavage of 0.84. A13G U72A gave a self-cleavage of 0.23. A13G A86U gave a self-cleavage of 1.21. Work on A13U A78G yielded a self-cleavage of 0.2. With A13G A24G the self-cleavage was 1.05. Variant U12C A64G has a self-cleavage of 0.41. U12C A59G showed a self-cleavage of 0.86. In the case of A13G A63U, the self-cleavage is reported as 0.77. With A13G A63G the self-cleavage was 0.97. Variant A13G A126G has a self-cleavage of 1.04. A13G A96U gave a self-cleavage of 1.14. In the case of U12C A126G, the self-cleavage is reported as 0.55. U12C A116G gave a self-cleavage of 0.73. A13G A90U showed a self-cleavage of 0.25. A13G C34G showed a self-cleavage of 0.83. A13C U127C gave a self-cleavage of 0.65. Variant A13G A98U has a self-cleavage of 1.29. Variant A13G U70C has a self-cleavage of 0.87. A13G U122C gave a self-cleavage of 0.76. With A13G U122A the self-cleavage was 0.97. For U12C C42U, the self-cleavage was 1.16. In the case of A13U A66U, the self-cleavage is reported as 1.15. A13G A110G gave a self-cleavage of 0.13. With U12A U70A the self-cleavage was 0.56. Variant A13C A23G has a self-cleavage of 1.36. A13G U139A gave a self-cleavage of 1.51. Work on A13G U139C yielded a self-cleavage of 1.13. In the case of A13G C77U, the self-cleavage is reported as 1.1. Work on A13G A59G yielded a self-cleavage of 0.59. With U12C A91G the self-cleavage was 0.8. In the case of A13G A125U, the self-cleavage is reported as 0.88. In the case of A13G A51G, the self-cleavage is reported as 0.85. With U12C U100A the self-cleavage was 0.63. A13U A86G gave a self-cleavage of 1.62. Work on U12C U132A yielded a self-cleavage of 0.67. Work on U12C U132C yielded a self-cleavage of 0.2. With U12C A55G the self-cleavage was 1.34. In the case of A13G U38A, the self-cleavage is reported as 0.78. U12C G44A gave a self-cleavage of 2.15. Work on U12C U57C yielded a self-cleavage of 1.27. A13G U102C gave a self-cleavage of 1.18. Variant A13C A95G has a self-cleavage of 1.32.
